{"source": "patent US10765761B2", "about": "“Nucleic acid condensing peptide, nucleic acid condensing peptide set, nucleic acid delivery carrier, nucleic acid delivery method, cell production method, cell detection method and kit” (KABUSHIKI KAISHA TOSHIBA, priority 2016, dated 2020)", "key": {"[1]": {"test_system": "plasmid vector (pDNA)", "experiment": "Average particle diameter, polydispersity index and Zeta potential of peptide-nucleic-acid complexes, Example 6", "type": "physicochemical", "details": "peptide-nucleic-acid complex, total peptide 0.24 mg/ml, pDNA 0.15 mg/ml", "procedure": "Each of the peptides was dissolved into 10 mM-HEPES (pH: 5.4) to prepare several peptide solutions having different peptide concentrations.\nFor the mHP-1, one peptide solution was prepared to have a peptide concentration of (1) 0.24 mg/ml. For the mHP-2, one peptide solution was prepared to have a peptide concentration of (2) 0.24 mg/ml. For the mHP-1 and mHP-2, five peptide solutions were prepared to have a total peptide concentration of 0.24 mg/ml and mixture ratios between mHP-1 and mHP-2 of: (3) 1:1, (4) 1:3, (5) 1:5, (6) 1:7 and (7) 1:9. Meanwhile, plasmid vector (pDNA) was diluted with purified water to prepare a nucleic acid solution having a pDNA concentration of 0.15 mg/ml.\nThe peptide solutions (1) to (7) (100 μL) were prepared in tubes and the nucleic acid solution (200 μL) was dropped and mixed thereto while stirring each solution to condense the nucleic acids, and thus peptide-nucleic-acid complexes were obtained.\nThe peptide-nucleic-acid complexes were investigated in terms of average particle diameter, polydispersity index and Zeta potential using the respective peptide-nucleic-acid solutions. The average particle diameter, polydispersity index and Zeta potential were measured using a zetasizer."}, "[2]": {"experiment": "Average particle diameter, polydispersity index and Zeta potential of liposome (Complex), Example 8", "type": "physicochemical", "procedure": "COATSOME/SS-20 (Nippon Oil & Fats), DOPE, cholesterol and DMG-PEG were dissolved into ethanol at a molar ratio of 5:3:1:0.3, to obtain a lipid solution. Five sets of 50 μL of lipid solutions put into tubes were prepared, and 50 μL of peptide-nucleic-acid solutions (1) to (4) and (7) of Example 6 were dropped thereto while stirring each lipid solution, thereby forming liposomes. 400 μL of 10 mM-HEPES (pH: 5.4) was added to each of the liposome solutions to make a total amount of 500 μL (this liposome solution will be referred to as “Complex” hereinafter).\nThe average particle diameter, polydispersity index and Zeta potential of liposome were investigated using the Complex. The average particle diameter, polydispersity index and Zeta potential were measured using a zetasizer."}}}
{"sequence": "RQRQRYYRQRQRGGRRRRRR (Nucleic acid condensing peptide) [mHP-1]", "values": [{"measurement": "Average particle diameter (zAve)", "setting": "[1]", "value": 156.6, "unit": "nm"}, {"measurement": "Polydispersity index (PDI)", "setting": "[1]", "value": 0.190}, {"measurement": "Zeta potential", "setting": "[1]", "value": "−31.1", "unit": "mV"}, {"measurement": "Average particle diameter (zAve)", "setting": "[2]", "value": 244.7, "unit": "nm"}, {"measurement": "Polydispersity index (PDI)", "setting": "[2]", "value": 0.193}, {"measurement": "Zeta potential", "setting": "[2]", "value": 31.6, "unit": "mV"}]}
